In patent US20090175886A1 (Bristol-Myers Squibb, published 2009):
“And” between values parts separate entries of the source, which are not always exact repeats. Equal entries are not always repeated. Each block holds one molecule with its values, some of them ahead of it.

How the values were obtained:
[1] = biological target: human CD30 expressed on cells (L540, L428, L1236, Karpas cell lines; activated human peripheral blood cells) (human) (UniProt P28908); experiment: Scatchard analysis, 125I-labelled antibody on PHA/Con A/IL-2 activated human peripheral blood cells
[2] = biological target: human CD30 expressed on cells (L540, L428, L1236, Karpas cell lines; activated human peripheral blood cells) (human) (UniProt P28908); experiment: Scatchard analysis, 125I-labelled antibody on L540 cells
[3] = biological target: human FcRgammaIIIa, Phe^158 allotype (human) (UniProt P08637); experiment: SPR (Biacore): mAb captured on a surface coated with recombinant human CD30, FcRγIIIa Phe158 (CD16-Phe) flowed over, equilibrium signal fitted to a one-site model; Binding Constants (nM)
human FcRgammaIIIa, Phe^158 allotype (human), sequence (P08637 17-208 limits assumed): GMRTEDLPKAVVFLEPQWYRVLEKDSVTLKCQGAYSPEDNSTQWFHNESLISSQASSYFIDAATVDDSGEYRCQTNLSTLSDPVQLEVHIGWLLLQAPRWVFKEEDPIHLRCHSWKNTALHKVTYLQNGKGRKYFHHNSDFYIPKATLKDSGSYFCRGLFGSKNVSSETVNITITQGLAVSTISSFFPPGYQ

[4] = biological target: human FcRgammaIIIa, Val^158 allotype (human) (UniProt P08637); experiment: SPR (Biacore): mAb captured on a surface coated with recombinant human CD30, FcRγIIIa Val158 (CD16-Val) flowed over, equilibrium signal fitted to a one-site model; Binding Constants (nM)
human FcRgammaIIIa, Val^158 allotype (human), sequence (P08637 17-208 F176V limits assumed): as the sequence (P08637 17-208 limits assumed) above, with F160V counted along it

[5] = biological target: human CD30 expressed on cells (L540, L428, L1236, Karpas cell lines; activated human peripheral blood cells) (human) (UniProt P28908); experiment: flow cytometry on CD30-expressing L540 cells, FITC anti-human secondary antibody
[6] = biological target: human CD30 expressed on cells (L540, L428, L1236, Karpas cell lines; activated human peripheral blood cells) (human) (UniProt P28908); experiment: Scatchard analysis (Bmax), 125I-labelled antibody on L540 cells
[7] = biological target: human CD30 expressed on cells (L540, L428, L1236, Karpas cell lines; activated human peripheral blood cells) (human) (UniProt P28908); experiment: cell-based or functional assay
[8] = biological target: cynomolgus CD30 on PHA, Con A and rIL-2 activated cynomolgus peripheral blood mononuclear cells (cynomolgus monkey); experiment: Scatchard analysis, 125I-labelled antibody on PHA/Con A/IL-2 activated cynomolgus peripheral blood mononuclear cells
[9] = biological target: human CD30 expressed on cells (L540, L428, L1236, Karpas cell lines; activated human peripheral blood cells) (human) (UniProt P28908); experiment: Scatchard analysis (Bmax), 125I-labelled antibody on activated human peripheral blood cells
[10] = biological target: cynomolgus CD30 on PHA, Con A and rIL-2 activated cynomolgus peripheral blood mononuclear cells (cynomolgus monkey); experiment: Scatchard analysis (Bmax), 125I-labelled antibody on activated cynomolgus peripheral blood mononuclear cells
[11] = biological target: T1, human CD30 expressed on cells (L540, L428, L1236, Karpas cell lines; activated human peripheral blood cells) (human, UniProt P28908 19-595); experiment: flow cytometry on CD30-expressing L540 cells, FITC anti-human secondary antibody
T1 construct: whole, on cells; also called CD30 antigen
T1 sequence (looked up): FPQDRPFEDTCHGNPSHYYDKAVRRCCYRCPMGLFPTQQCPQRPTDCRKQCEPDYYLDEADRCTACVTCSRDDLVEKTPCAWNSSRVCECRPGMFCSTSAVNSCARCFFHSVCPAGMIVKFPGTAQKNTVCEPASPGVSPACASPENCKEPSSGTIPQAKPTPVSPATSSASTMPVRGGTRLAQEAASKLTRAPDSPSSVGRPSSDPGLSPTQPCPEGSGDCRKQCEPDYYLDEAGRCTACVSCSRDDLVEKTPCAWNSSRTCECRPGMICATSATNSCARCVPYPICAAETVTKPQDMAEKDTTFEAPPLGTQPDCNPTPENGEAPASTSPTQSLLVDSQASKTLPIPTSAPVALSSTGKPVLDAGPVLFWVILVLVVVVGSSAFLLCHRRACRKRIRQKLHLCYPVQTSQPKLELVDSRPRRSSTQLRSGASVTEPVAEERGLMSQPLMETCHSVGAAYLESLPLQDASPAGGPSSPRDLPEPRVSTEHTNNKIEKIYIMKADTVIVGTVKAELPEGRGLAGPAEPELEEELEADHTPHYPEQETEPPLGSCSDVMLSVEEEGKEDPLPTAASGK

[12] = biological target: T1, human CD30 expressed on cells (L540, …); experiment: cell-based or functional assay
[13] = biological target: T1, human CD30 expressed on cells (L540, …); experiment: cell-based or functional assay; remark: listed apart in the source
[14] = biological target: T1, human CD30 expressed on cells (L540, …); experiment: Scatchard analysis, 125I-labelled antibody on PHA/Con A/IL-2 activated human peripheral blood cells
Description: (§1) Human or cynomolgus peripheral blood cells were stimulated with 2 μg/ml PHA, 10 μg/ml Con A, and 50 U/ml rIL-2 and cultured in RPMI1640 media containing 10% fetal bovine serum (FBS) at 1×10⁶ cells/ml density for 3 days. On the day of the study, the cells were washed and adjusted to 2×10⁷ cells/ml in binding buffer (RPMI1640+10% FBS). […] The cells were placed on ice until the initiation of the experiment. Millipore glass fiber filter plates (MAFBNOB50) were coated with 1% nonfat dry milk in water and stored a 4° C. overnight. The plates were washed three times with 0.2 ml of binding buffer. Fifty microliters of buffer alone was added to the maximum binding wells (total binding). Twenty-five microliters of buffer alone was added to the control wells. Varying concentration of ¹²⁵I-anti-CD30 antibody was added to all wells in a volume of 25 μl. Varying concentrations of unlabeled antibody at 300-400 fold excess were added in a volume of 25 μl to control wells (non-specific binding) and 25 μl of CD30 positive L540 cells or stimulated human or cynomolgus peripheral blood cells in binding buffer were added to all wells. The plates were incubated for 2 hours at 200 RPM on a shaker at 4° C. At the completion of the incubation the Millipore plates were washed twice with 0.2 ml of cold wash buffer (RPMI1640, 10% FBS, 500 mM NaCl). The filters were removed and counted in a gamma counter. […]

[15] = biological target: T1, human CD30 expressed on cells (L540, …); experiment: Scatchard analysis, 125I-labelled antibody on L540 cells
Description: as §1

[16] = biological target: T2, cynomolgus CD30 on PHA, Con A and rIL-2 activated cynomolgus peripheral blood mononuclear cells (cynomolgus monkey, UniProt A0A2K5VW07 29-603); experiment: Scatchard analysis, 125I-labelled antibody on PHA/Con A/IL-2 activated cynomolgus peripheral blood mononuclear cells
T2 construct: whole, on cells
T2 sequence: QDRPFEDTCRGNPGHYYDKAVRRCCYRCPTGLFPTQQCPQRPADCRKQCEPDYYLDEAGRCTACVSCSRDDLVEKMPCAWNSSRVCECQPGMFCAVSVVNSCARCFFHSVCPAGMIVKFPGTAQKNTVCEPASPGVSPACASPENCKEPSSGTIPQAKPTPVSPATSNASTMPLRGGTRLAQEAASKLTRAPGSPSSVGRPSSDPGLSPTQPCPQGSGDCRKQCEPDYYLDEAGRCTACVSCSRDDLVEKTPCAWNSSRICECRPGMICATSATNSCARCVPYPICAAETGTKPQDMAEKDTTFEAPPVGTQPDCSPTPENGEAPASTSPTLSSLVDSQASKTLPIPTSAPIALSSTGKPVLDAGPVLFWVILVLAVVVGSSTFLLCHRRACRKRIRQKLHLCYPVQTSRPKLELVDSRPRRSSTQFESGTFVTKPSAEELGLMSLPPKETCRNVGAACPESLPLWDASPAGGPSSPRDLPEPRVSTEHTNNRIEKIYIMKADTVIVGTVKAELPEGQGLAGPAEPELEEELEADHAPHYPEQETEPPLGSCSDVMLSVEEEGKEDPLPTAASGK
Description: as §1

Kd [1]: 1.08 nM
Kd [2]: 1.37 nM
Kd [3]: 1090 nM
Kd [4]: 177 nM
EC50 [5]: 0.18 µg/mL
Receptors Per Cell (ave) (receptors per cell) [6]: 2.5e+06
% Lysis, 51Cr release ADCC, Karpas cells, 25 µg/ml antibody, target:effector 1:50 [7]: 19%
% Lysis, 51Cr release ADCC, L428 cells, 25 µg/ml antibody, target:effector 1:50 [7]: 20%
% Lysis, 51Cr release ADCC, L540 cells, 25 µg/ml antibody, target:effector 1:50 [7]: 42%
% Lysis, 51Cr release ADCC, L1236 cells, 25 µg/ml antibody, target:effector 1:50 [7]: 4%
% cell lysis, ADCC, Karpas 299 cells, cynomolgus effector cells, 10 µg/mL antibody [7]: 7% and 10%
EC50 of ADCC, Karpas cells [7]: 0.25 µg/mL
EC50 of ADCC, L428 cells [7]: 0.1 µg/mL
EC50 of ADCC, L540 cells [7]: 0.042 µg/mL
EC50 of ADCC, L540 cells, heterozygous FcRγIIIaPhe/Val^158 human effector cells [7]: 0.0589 µg/mL
EC50 of ADCC, L540 cells, homozygous FcγIIIa Phe/Phe^158 effector cells [7]: 0.0337 µg/mL
EC50 of ADCC, L1236 cells [7]: 1.22 µg/mL
maximal percent cell lysis, ADCC, L540 cells, heterozygous FcRγIIIaPhe/Val^158 human effector cells [7]: 31%
maximal percent cell lysis, ADCC, L540 cells, homozygous FcγIIIa Phe/Phe^158 effector cells [7]: 15%
Kd [8]: 0.47 nM
Receptors Per Cell (ave) (receptors per cell) [9]: 45700
Receptors Per Cell (ave) (receptors per cell) [10]: 72800
Molecule: fucosylated 5F11 human anti-CD30 monoclonal antibody produced in CHO DG44 cells

EC50 [11]: 0.196 µg/mL
Kd [3]: 41 nM
EC50 of ADCC, L540 cells, FcγRIIIa Phe/Phe^158 effector cells [12]: 0.0199 µg/mL
EC50 of ADCC, L540 cells, FcγRIIIa Val/Phe^158 effector cells [12]: 0.0131 µg/mL
fold increase in ADCC activity compared to 5F11 CHO [12]: 20 fold
B1: 5F11 LEX^Opt mAb (glyco-optimized 5F11 produced in Lemna minor with FucT/XylT RNAi, vector MDXA04) (antibody, V domains shown)
VH: QVQLQQWGAGLLKPSETLSLTCAVYGGSFSAYYWSWIRQPPGKGLEWIGDINHGGGTNYNPSLKSRVTISVDTSKNQFSLKLNSVTAADTAVYYCASLTAYWGQGSLVTVSS
VL: DIQMTQSPTSLSASVGDRVTITCRASQGISSWLTWYQQKPEKAPKSLIYAASSLQSGVPSRFSGSGSGTDFTLTISSLQPEDFATYYCQQYDSYPITFGQGTRLEIK
notes: N-glycans at Asn 297 are 95.8% GnGn (G0), with no fucosyl or xylosyl; also called MDXA04 derived mAb; glyco-optimized anti-CD30 mAb

% Lysis ratio fucosyl-:fucosyl+, ADCC, Karpas cells [13]: 2.63
% Lysis ratio fucosyl-:fucosyl+, ADCC, L428 cells [13]: 2.15
% Lysis ratio fucosyl-:fucosyl+, ADCC, L540 cells [13]: 1.61
% Lysis ratio fucosyl-:fucosyl+, ADCC, L1236 cells [13]: 3.25
EC50 of ADCC, Karpas cells [13]: 0.032 µg/mL
EC50 of ADCC, L428 cells [13]: 0.009 µg/mL
EC50 of ADCC, L540 cells [13]: 0.009 µg/mL
EC50 of ADCC, L1236 cells [13]: 0.045 µg/mL
EC50 ratio fucosyl+:fucosyl-, ADCC, Karpas cells [13]: 7.8
EC50 ratio fucosyl+:fucosyl-, ADCC, L428 cells [13]: 11.1
EC50 ratio fucosyl+:fucosyl-, ADCC, L540 cells [13]: 4.7
EC50 ratio fucosyl+:fucosyl-, ADCC, L1236 cells [13]: 27.1
Kd [14]: 2.66 nM
Kd [15]: 1.93 nM
Kd [16]: 0.83 nM
B2: defucosylated 5F11 human anti-CD30 monoclonal antibody produced in Ms704 (FUT8-/-) cells (antibody, V domains shown)
VH: B1 VH
VL: B1 VL
notes: also called defuc-5F11; defucosylated anti-CD30 antibody
